The test system of the data set is MOP7/human ARNT (transfected) (Mus musculus). As to the kind of experiment: cell_activity. The following applies: COS-1 luciferase; enhanced by hypoxia or CoCl2.

Consider “HRE reporter (six HRE enhancer elements)”, for which the activity is 11.7 fold.

The record behind these values is patent publication US20060084798.
